This note sets out measurements from the supplement of paper PMC10567573.

A short description of the data set: protein stability index of a GFP-peptide fusion (GPS, HEK-293T) (PSI 1-6); higher = more stable. The following applies: c terminus: a fixed tail appended.

± gives the standard deviation.
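Note: 24-mer peptide tiles fused after GFP, lentivirally expressed, FACS-sorted into six equal bins by GFP/DsRed ratio, decoded by Illumina sequencing, PSI is the read-weighted mean bin number.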

Regarding LVMPIEDQLTQIMRTGQNTWESKN [PCMTD1], the protein stability index is 3.13 ± 0.13 (treatment: DMSO) and 3.2 ± 0.38 (treatment: MLN4924 1 uM, 8 h).

On to NFSAAKSLLNKKADGVKPQTNSTK [CAMK2B], for which the protein stability index (treatment: DMSO) amounted to 4.98 ± 0.22 and the protein stability index (treatment: MLN4924 1 uM, 8 h) is 4.85 ± 0.34.

For LQFEAEMARLQEEHGDQLLSIRCQ [MTUS2], the protein stability index was 3.99 ± 0.12 (treatment: DMSO) and 3.92 ± 0.51 (treatment: MLN4924 1 uM, 8 h). The corresponding values for TPTPQALYPDLSCPEGLEELLSAP [SPSB2] are 4.54 ± 0.24 and 4.55 ± 0.3. On the same counts, the results for GKAFPSGCSAVSEPASESVVGALP [TRAF3IP2] are 4.33 ± 0.14 and 4.59 ± 0.24. The corresponding values for QLQVESNSSQLLLRRHAGLLDGLA [SCARA5] are 2.68 ± 0.26 and 2.9 ± 0.17. LKTGNSSPGIGAVYLANQAKNQSD [RTP4]: the protein stability index runs as follows: (treatment: DMSO) 3.82 ± 0.14; (treatment: MLN4924 1 uM, 8 h) 3.97 ± 0.19. The corresponding values for CFKGELPLRAVHINLEEKEKQIRS [PLEKHN1] are 3.95 ± 0.18 and 3.96 ± 0.33.

For the sequence LRTRVKTTGIVETHFTFKDLHFKM [GNAI1], the protein stability index (treatment: MLN4924 1 uM, 8 h) is 2.14 ± 0.62.

For FFTVEFGLCKQDGQLRVFGAGLLS [TPH1], the protein stability index runs as follows: (treatment: DMSO) 2.73 ± 0.57; (treatment: MLN4924 1 uM, 8 h) 3.09 ± 1.2. The corresponding values for LVFLITAILVKVQLDALPFFVITM [SLC29A1] are 3.06 ± 0.24 and 2.88 ± 0.39. The corresponding values for FVSIAQSEQESLLQQAQAQFRMAQ [SMG5] are 2.68 ± 0.31 and 3.08 ± 0.47. On the same counts, the results for KVTGYLISYSSMLGAVAGLALGPI [MFSD9] are 3.31 ± 0.48 and 2.96 ± 0.28. In turn, STRWEVIAEDGTKEIESQGSIPGF [TAF7L] gave a protein stability index (treatment: DMSO) of 4.58 ± 0.067 and a protein stability index (treatment: MLN4924 1 uM, 8 h) of 4.54 ± 0.3. On the same counts, the results for DSTNVEEAFKNILTEIYRIVSQKQ [RAB11B] are 2.29 ± 0.2 and 2.49 ± 0.25. On the same counts, the results for KCFSCNSNLHRHQRTHTGEKPYKC [ZNF263] are 3.5 ± 0.1 and 3.45 ± 0.15. On the same counts, the results for FLLKFLLVGDSDVGKGEILASLQD [RAB40B] are 3.52 ± 0.49 and 1.86 ± 0.28. For EAAGVQIQMVNESLGYVRSQFLKL [CD207], the protein stability index was found to be 2.334 ± 0.019 (treatment: DMSO) and 2.3 ± 0.44 (treatment: MLN4924 1 uM, 8 h). The corresponding values for CVDRQEVAEITKQLPPVVPVSKPG [TCAP] are 4.7 ± 0.2 and 4.63 ± 0.15. On the same counts, the results for TENRYCVQLSQIQGLIGSVEEQLA [KRT17] are 3.1 ± 0.51 and 3.24 ± 0.22.

Consider IDRNLREDGEKAAREVKLLLLGAG [GNAI1], for which the protein stability index was 3.67 ± 0.23 (treatment: DMSO) and 3.58 ± 0.096 (treatment: MLN4924 1 uM, 8 h). The corresponding values for KNGQGFALVYSITAQSTFNDLQDL [RAP1B] are 2.23 ± 0.42 and 2.17 ± 0.45. The corresponding values for APKGKGRKPAAGAQSAGTQQVAAV [BRD3] are 4.98 ± 0.33 and 5.04 ± 0.24.

In turn, SCKACGYRGMLDTHHKLCTFILKN [EIF5] returned a protein stability index (treatment: DMSO) of 2.55 ± 0.35 and a protein stability index (treatment: MLN4924 1 uM, 8 h) of 2.77 ± 0.46. The corresponding values for GLGPTSEPFPSSDDSPRSALAAAT [SPAG8] are 4.95 ± 0.19 and 5.18 ± 0.038.

For RFFLGDLCSRQDLYPALKGVNTVF [NSDHL], the protein stability index reads like this: (treatment: DMSO) 2.19 ± 0.26; (treatment: MLN4924 1 uM, 8 h) 2.14 ± 0.54. On the same counts, the results for TAQHQRRLAAIAQEKDQEMERLRE [FBF1] are 5.36 ± 0.17 and 5.42 ± 0.14. The corresponding values for GQWLGGRQIRTNWATRKPPAPKST [TIA1] are 3.57 ± 0.3 and 3.73 ± 0.34.

For VIKYNVNDKFSFHEVKDNYIPVIK [RHOBTB3], the protein stability index was found to be 2.21 ± 0.44 (treatment: DMSO) and 2.75 ± 0.34 (treatment: MLN4924 1 uM, 8 h). On the same counts, the results for PNLASDSDLSRRSSSTMSKSEYME [KCNA1] are 5.16 ± 0.27 and 5.22 ± 0.16. On the same counts, the results for NRPIETYQVHDYLRSKLCSLYEND [PPP2R2B] are 2.97 ± 0.084 and 3.22 ± 0.16. The corresponding values for LLLSHIHASSYISPEKEEQYIAQF [PRAME] are 2.42 ± 0.54 and 2.37 ± 0.4. With MPAAGLAVQLRHAWNPEDRSLNVF [SPSB4], the protein stability index turned out to be 2.75 ± 0.14 (treatment: DMSO) and 2.95 ± 0.26 (treatment: MLN4924 1 uM, 8 h). The corresponding values for QPKCDNTARAHPAKARDLYKGRQL [SMOC2] are 4.26 ± 0.17 and 4.35 ± 0.19. The corresponding values for PWKEETFLVLQSLLERQVEMTPEK [FANCE] are 3 ± 0.22 and 3.08 ± 0.27.

In the case of DRPRCCLRGKECCINRFQQVESRW [BTBD1], the protein stability index was 2.89 ± 0.32 (treatment: DMSO) and 3.06 ± 0.38 (treatment: MLN4924 1 uM, 8 h). The corresponding values for LQDIKTAGPQSQVLCGVVMDRSLV [ADD1] are 2.98 ± 0.22 and 2.91 ± 0.19.

Take FARFCKSQESALGNTVPAVEPGTP [DNAAF3]: the protein stability index was found to be 3.63 ± 0.25 (treatment: DMSO) and 3.58 ± 0.21 (treatment: MLN4924 1 uM, 8 h). Take ISLEERRAQLPKYQRNLPRPGQAP [ZNF207]: the protein stability index by setting is: (treatment: DMSO) 3.41 ± 0.12; (treatment: MLN4924 1 uM, 8 h) 3.67 ± 0.32. For the sequence GLEAPRDLEAKEVTPRTALLTWTE [TNXB], the protein stability index was 3.22 ± 0.4 (treatment: DMSO) and 4.95 ± 0.29 (treatment: MLN4924 1 uM, 8 h). On the same counts, the results for SATLRSFEGLMGTIKSKVSGGKRA [TPD52L3] are 3.51 ± 0.18 and 3.33 ± 0.56. The corresponding values for RIHSGEKPYECNECGKAFSQSSYL [ZNF232] are 2.85 ± 0.068 and 3.1 ± 0.35. On the same counts, the results for MLPGRTDNAVKNHWNSTIKRKVDT [MYBL2] are 3.61 ± 0.17 and 4.09 ± 0.24. With LTLDLPTAPLYKDEKEQLIIPQVP [USP39], the protein stability index worked out at 3.91 ± 0.33 (treatment: DMSO) and 3.92 ± 0.25 (treatment: MLN4924 1 uM, 8 h). The corresponding values for AAQPMTKKRKVDGLSTEAEQPFIP [PRAME] are 4.43 ± 0.21 and 4.55 ± 0.27. On to PVELYTAFQHTPTSITLTASRVSK [KMT2E], for which the protein stability index is, setting by setting: (treatment: DMSO) 3.63 ± 0.095; (treatment: MLN4924 1 uM, 8 h) 3.71 ± 0.13. On the same counts, the results for LKGVKQACCEFLESQLDPSNCLGI [KLHL12] are 2.66 ± 0.66 and 2.51 ± 0.29. The corresponding values for HHCDDHLSLYQLSLERGTALFAQV [RSAD1] are 2.22 ± 0.66 and 2.03 ± 0.2. For the sequence NPPKASAAPDCTPSLEAGNPAPAA [MYCL], the protein stability index reads like this: (treatment: DMSO) 5.34 ± 0.19; (treatment: MLN4924 1 uM, 8 h) 5.34 ± 0.23. On the same counts, the results for RCSSMHFLVAEWNEPSINFYKRRG [SAT1] are 2.86 ± 0.33 and 2.42 ± 0.28. The corresponding values for FLQVLEPGARGLWKPPDIKGKLMV [SPAG8] are 2.38 ± 0.34 and 2.26 ± 0.32. In the case of TDSDDDFDMSRYSSSGYSSAEINQ [FAM219A], the protein stability index by setting is: (treatment: DMSO) 5.04 ± 0.21; (treatment: MLN4924 1 uM, 8 h) 5.22 ± 0.37.

In the case of LRLCRLWPRNPPSRLLGAAAGQRS [DNAJC4], the protein stability index turned out to be 2.75 ± 0.54 (treatment: DMSO) and 2.7 ± 0.39 (treatment: MLN4924 1 uM, 8 h). On the same counts, the results for VHQRTHTGEKPHTCSECGKGFIQK [ZNF649] are 3.67 ± 0.28 and 3.52 ± 0.58.

As to LPMLSVDMENKENGSVGVKNSMEN [SAMD13], the protein stability index was 5.09 ± 0.25 (treatment: DMSO) and 5.18 ± 0.27 (treatment: MLN4924 1 uM, 8 h). Sequence IDYKTTTILLDGQRVKLKLWDTSG [RAB40A] came in with a protein stability index (treatment: DMSO) of 2.27 ± 0.07 and a protein stability index (treatment: MLN4924 1 uM, 8 h) of 2.36 ± 0.2.

Consider FLSLACARGSIVATYIFIFIGETL [SPNS1], for which the protein stability index was determined as 2.72 ± 0.2 (treatment: DMSO) and 2.92 ± 0.71 (treatment: MLN4924 1 uM, 8 h). On the same counts, the results for TLHQRTHTEERPFKCNYCGKSFRQ [ZNF449] are 2.55 ± 0.33 and 2.91 ± 0.51. The corresponding values for QVLIKHSADVNARDKNWQTPLHVA [ANKRD44] are 3.15 ± 0.34 and 3.01 ± 0.32.

For MWKFVSPLCMAVLTTASIIQLGVT [SLC6A17], the protein stability index stood at 3.21 ± 0.58 (treatment: DMSO) and 2.87 ± 0.49 (treatment: MLN4924 1 uM, 8 h). Sequence NTLKRENSSPRVMQRKQSLGKPDQ [DLC1] gave a protein stability index (treatment: DMSO) of 4.85 ± 0.24 and a protein stability index (treatment: MLN4924 1 uM, 8 h) of 4.83 ± 0.38. On the same counts, the results for QRINTYVFVGNQLIPQPLDSEEDE [PCMTD1] are 4.32 ± 0.25 and 4.37 ± 0.15. On to QVAMRCRCSSMHFLVAEWNEPSIN [SAT1], for which the protein stability index (treatment: DMSO) is 2.23 ± 0.53 and the protein stability index (treatment: MLN4924 1 uM, 8 h) was 2.27 ± 0.2. Turning to AEASHYNSDLNNLLFCCQCVDVVF [RHOBTB3], the protein stability index by setting is: (treatment: DMSO) 2.52 ± 0.49; (treatment: MLN4924 1 uM, 8 h) 2.54 ± 0.54.

Turning to PSLQHLCRMSIRRVMPTQEVQELP [WSB1], the protein stability index reads like this: (treatment: DMSO) 3.34 ± 0.43; (treatment: MLN4924 1 uM, 8 h) 2.8 ± 0.35. The corresponding values for VKRLHEVGRTEPELLVAHAYTRYL [HMOX1] are 2.2 ± 0.26 and 2.4 ± 0.36. The corresponding values for LLTTSGIQFKKHEEEGIETQYFAE [CNOT7] are 4.13 ± 0.13 and 4.19 ± 0.11.

For MDETSPLVSPERAQPPDYTFPSGS [PI4K2A], the protein stability index amounted to 4.91 ± 0.15 (treatment: DMSO) and 4.78 ± 0.39 (treatment: MLN4924 1 uM, 8 h). On the same counts, the results for FTLNPDKKTCRRINYCALNKPGCE [MATN2] are 2.64 ± 0.64 and 2.96 ± 0.45.

As to SYPVMGFEFQVRVCDSCYDSIKDE [WDFY1], the protein stability index was determined as 2.76 ± 0.18 (treatment: DMSO) and 3.06 ± 0.39 (treatment: MLN4924 1 uM, 8 h). The corresponding values for IEADRRRAQLHVQGLLHEAGSTDD [SPNS1] are 4.87 ± 0.18 and 5.1 ± 0.33. On the same counts, the results for NITDETPDNCEMFLNFNGMKLFLD [ZER1] are 3.62 ± 0.18 and 3.65 ± 0.46. The corresponding values for QKRQQLSEDTLTIHGLPTEGYQAL [C22orf31] are 3.91 ± 0.12 and 3.92 ± 0.096.
